In the DeepSol protein solubility set:

Experiment: soluble on expression in E. coli; label from the status in PepcDB or PDB records

Sequence	soluble on expression in E. coli
MVAVKREFELSHVFKDVSKLEDGNTFYGPEEEHFNVQWRIVLIHQKEDVAVFLRYLHPKNEQAPWKIDSEFTLKLSNSSGKSVTKTGSDIWNSYDALGFCDVFEWDSLLKDYLIDDVIIIEVAVKIKNMSGIPKKKLKSFERSNEEFSDVILAVGDKKFFVLRKFLASHSTYFETLLLGNFAEADKSEVKLQDINSTDFQNLMEVRYGEYAIDEETVDGILHLAHLYDMPFPIKRCEEFLVDSSEKSTKEKLKVAKKYQLENLKASCLAKINTLEEIKAALAGDLDEMDPSVVHALFRKSLALH	not soluble
MVAYPGPMPRSPSPGQTPDAPTSGGGSTDSTRQRIVAAAKEEFARHGIAGARVDRIAKQARTSKERVYAYFRSKEALYAHVAERETTALIEATQLDPADLPGYAGILFDHFAARPDHYRLITWGRLELAESADNTSGPLQATIAGKLDKLRDAQRIGLLDPAWDPVDVLALINQIAMTWAGQPEIAAAAADQAVDPSVTARRAALVTAVEHMFPRPDRDQRPNRLT	soluble
MVDIDSAVEAARRRGARRIVLQLPEGMLQYGLYIAKCFEEMLGGAAQVYLHADPTFGACDLHYGELDTTVRPDLIVHVGHSPYPAELAHEGLEPRGRVVYVRALSKSQLPLDALREAAGLLASRYGVRRVGIATTAQHTHLAEKAAEVLRGEGLEVAVPPGLRPYFGAAQVLGCDYRLARGVRADGFVYVGGGVFHPLGLYLATLKPVVQVDPYRGVSEDLTREGEKLYRSRLYRVSQSIGARRWGIIVGLKSGQYRPWLVEKLARAIESAGGEYLLVASEVTTLSQLVAIDNPWFEAFTVTSCPRLPTDDFWSYEKPVLTPGEAMMALEGRLEPYRFPWAAALEHHHHHH	not soluble
MVDKDIHSEHWYHGLLPREDIKAMLRKNGDFLVRSTEPKAGEPRQYVLSAMQSEELEDAGVKHYVMRLNSSNQIFLEAKGFETIASLVNYYMSSKEPIKKLTVLKTPILKQPWEIEHSQVELTKKLGEGAFGEVWKGKLTLKNGNVENCAIKTAKLESLNKEQIKEIMREARLMRNLDHPNVVKFYGVGASQEPLYVIMELADCGALDSYLQKNPNLVPDKKMEMIYQAACGISYMHEKKLLHRDIAARNCLYGGGQVKIADFGLSREGISYVMDLTKKVPIRWLAPETLKAGIYSPKTDVFAFGIMAWEITENGKEPYPDMRVADVVGKVRNGYRMRFDPVFVDFRFGDYVTKHCWAENPADRVSMADVLRYLQTTFGMKPVVLSILSSNRSTEEEMKTMKPPMFSVKRNNKKKPK	not soluble
MVDKGVKIKVDYIGKLESGDVFDTSIEEVAKEAGIYAPDREYEPLEFVVGEGQLIQGFEEAVLDMEVGDEKTVKIPAEKAYGNRNEMLIQKIPRDAFKEADFEPEEGMVILAEGIPATITEVTDNEVTLDFNHELAGKDLVFTIKIIEVVE	soluble
MVDLNKYKRFVETHGMKIPVLSLEYEYQAYLKLGRVEKAETLRKWLNERKG	not soluble
MVDPNEHKKAVKTQQQDDEQTFEAVARAWHTDNKKWSESHAERILKSLSDNIFPAIGGTHVANLKTRDLLTPIKSVERSGRLEVAKRLKQRVTAIMTYAVQNGLIDYNPAQDMAGAIMPGKVEHRLEHHHHHH	not soluble
MVDVIVIGAGIGGLTAAALLQERGFSTVVFEKNRFPGGSCSSFEKGGYTFDAGASVFYGFCDDDAMGTLNLHSRIFRKLGIAVETIPDPVQIHYHMPGGFDVPAWFDRDRFLESLCRRFPHERTGIRKFYDELESVYEILNSLPAGSLEDVIHLGVVGARHPLKVMALGVKTLFSMGNVARRYISDKELLRFIDLEAYSWAVQDAVSTPLVNAGICLADRHHGGINYPVGGSGTIPAALVKGFEKFGGSIRFGSEVSKVIVKNGSAVGVRLSDGTEVSAKAVVSNATVWDTFSKLVDDPRLRIPDDRFIKAPSWFQIWLGVDGSIVPPGFHMHHIIVDDWSKYDELGGTIYFSAPSVLDPSLAPPGKHALHLFVTAETWQWEQYEYRSQEYKAAKEAFAKSLIARAERLLPGIQDATELMVTATPQSHARYLNRRDGSYGPLLKPGQNILLKPQNRTPIKNLFAAGDSTFPGQGVIAVTYSGVSCASYIARQLGKALDYLLEHHHHHH	not soluble
MVEFRNEVSHQWTRRHTLRKFRAGMLSRDSLCDADFVLVTASKFHGSRVPTPCPVCDSDQLRHVLWVYGESLGRASGSARTMEEIVTFAQSGKEFTVHTVEVCPDCRWNHLLNSVTAMPQ	not soluble
MVEIDFNKENEEDFSDPPGFVDDVTDDVLVPDVLHKKPTIDEFEDNCVFIAGIPVVGADRLGKLQSVLKKVLERLDPAVKLYIPPSPEGGCLGVLLTEWADQRSAQFAVKSLNGYAFDKNHTFTARSFKDMKQLEAPSDHWTTPEKQAYNDVGDLWWWLQNERCRDQFAISHDKLGVPTVGVFTNMKGNDPELAGDADKAERANWTETVFTWSPHGSYLSTIHKQGIILWGGKDYARAHRFAHTNVQYIDFSPWETYLVTYAAPEESNSWGDCEKDSLRIWDVRTGELKKAFSTFELTGRTQLPTWPFFRWSFDEKYFACLKAPEKDKLEREQKINGISIFESEKFELYEGRPVNIENIKQFEWSPTSTVLAYYSECTDAVPAEFGLLQVPSMQRLRSARVHNVADAQMFWQKSGKRLAFYTMRFKKKEYRETGEVKYVGGCQYHVDIFEIDKKDVSLMNLPLSEPFIHFDWDPEGDKFCVLVGNTAKATPQVYKIEANSHAPKLVSKLDAGVHFNEVQFAPKGGWLAVLAKVSAGGNVYFIDTSLSEAKRTNVIEHPLFNKGYWDPTGRYFVTCSTLGGRAGADLGYRIFTFQGRELCRKNLDRLAQFKWRPRPPVKLSEQKQREIKKNLKKTAAKFIKQDDDEKCRASQEVVEKRRKIMAAFDIIRSRNREQLDATRDERISLRNGVDTEAQLDEDEFVDEEITIALSTSKTQAPLTEEEMRD	not soluble
MVFDAIVVTDLQGFIIDWNKGSETLYGYSKEQAIGQPVNMLHVPGDTEHITSEVISAVENQGKWTGEIRMLHKDGHIGWIESMCVPIYGENYQMVGALGINRDITKRKKELEHHHHHH	not soluble
MVFYFKARPDAGDYTIFMGLDKFENEELIKYGFPEDVWFHVDKMSSAHVYLRLHRGQSFDDISEGVLEDCAQLVKANSIQGNKVNNVDVVYTPWSNLKKTASMDVGQVGFHNSKMVRTIRVEKRVNEIVNRLNKTKVERTPDLRAEREAVNAAERAERKQHLREKKKREEIDRLEKERQSEMRSYKGLMVTDKMTSNKDIASSNKSLQELEDDFM	soluble
MVFYGQPVTDDSTIRLSGQGVNTAFSVNLQAINHDVQKIAFTATCDGNQTLSQLGNLSIQVELNGSVLMKGDVETQGRQEAALILGELYRRNTEWKFRFVAQGFNGGLKPLAEHFGVVVEDEPAAPTPVPTPVSTPAPTAPPVAKPINLSKVSLTKEKPVISLTKRDDFGEIRVNLNWHRGGGAPAKGFLQGIFNSNKGIDLDLGAFVALNDGSRGVIQALGNNFGSYHSEPYVQLQGDDRTGDVSDGEWMHINGREWKHVKEVLIFAFIYEGVPSWGSTDGIVTINVPGQAPIETQMNEGNDRKNMCAVARLVNESGNIKVERINRYFSGHKEMDEAFGWGFRWKAGSK	not soluble
MVGLADVAVLYSGGKDSNYALYWALKSGLRVRYLVSMVSENEESYMYHTPNVELTSLQARALGIPIIKGFTKGEKEKEVEDLKNVLEGLKVDGIVAGALASRYQKERIENVARELGLKVYTPAWEKDPYQYMLEIIKLGFKVVFVAVSAYGLNESWLGRELNYKNLEELKKLSEKYGIHIAGEGGEFETFVLDMPFFKAKIVIDDAEKFWDGLSGKFIIKRAHLEWK	soluble
MVHDTFMKMPEVRRRRQPTHVLVAGGNQGLGNMTAFLRAARTSTLFRYSVLCGANKQLYHEIASWQLPHIRPLPYINSPEEMNQLYDEADAVITKPGGVTISELLHKRIPIFTIDCLPGQERINWQYLRRNGLIYHLAEPGNGERKMIRLLTDDVEKNRFFRRVSDYFAGVEKTGLEHHHHHH	not soluble
MVHHDGTLQALITAYQKTPAFTDLAEATRKGYIRHIRQIEADFGDMPVQALADPRVRGEFLDWRDRLAQKSKRSADYAFSVLARILSWAHDRRKIPVNPCEKPGRLYTLEHHHHHH	not soluble
MVHTADNAWRAHIPLMYREDFLCSSGVARWNEEFPRHCVVSQHDRHKTKSVLVILFLIAMRNIKNNRGTFTRIKDRLSSALKSPASLFRRSPEISLREDILSWKKSPHSLAASEYGGSDLLVQFLKQQTSDDYVDFWLESGEYRWTRTKPGRKRDIEAQRIYDKFVYGECPRKIAHLEKMCFVSRQGPTGRDVFICAQAYVGTNFPKDSYKKFLQDPIYLNLLKTVSSGATQLNE	not soluble
MVIILRHVRVFNGVNECDIYLIGTAHVSKDSIEEVEKIISSVSPEGIAVELDDRRFFSLITNEEKKVDLKKVLKEGNFLKFFIYLILANSQKKIGESFGIKPGSEMKKAIEIASKYGLPIYLIDRDIDITLSRLMDRMTFKEKMKIFWELLNSDEEDLELDDDLLNDMVKNPEKFIKLLKEISPTIYEVLVDERDRFMAKRLFELSKNKNSLVAVVGAGHVEGIVRYLKKLENGNDIDLMELIKVKKRK	not soluble
MVIRSVSRFLQGNNWPDVSKIYKTIVEKWRNENPDQNAHFSLEVTGPTGTSGVVTVKPSEEIGKSEKVSEEKSSEKPSIEVATTSLKRYPPAHMRVRDKLVGILSASGLRIGLPSSVSLVFSRSDLGSATSSTERICASSQEVASTMSLPDPSQSGITDSFPRVFKEFDFLEAEHDSVSETADSCFGWLSTMRPTREKDDERASIRSSLRNLSSGGQGGEEEEEEPEEDEESESHEEEENSESDDLPRKVEDDDLEEEDEDEEERTPCPSECCDDDREDVEMMLRQDIEAYASRGGSVAASSMADDDLRSRLTNNIVSISSQMTEHRHLEEENTSVDGSSVCAYSNASMLASEYYPNRTRSLRIQCSHHLDSRIEREFSMSVNEINESNDCNLLAYGTLLSTQLYKSSCGKVCALLRDASHILTNRAMSRSFASAQETLCNVVDIPFLFVTEQFLRNSPICQRLKFTLNELKEHWETFDERRDQCQKNTTNFGRKYKLFEILDFRKKNLKGINSLRSAYKLSALGGSTSSFSLTSELDLGKLLNKLVFQVKLMIDALKDMSDAVKNSTSSQTYSLSPAILEHHRELLMCASDDAASSVNSSLSRLNIDDSISRSQHSCDSLVLLLANKRYTQALQAVRQLRRTYGEEYGCCETVDVDVLLLLFCRSHSLKAWALVGASSEELTRQSELLREANAELASCLRRNAQSLQNMERMTPSMGSASMTESFAQLPSSSDHYD	not soluble
MVKLTSIAAGVAAIAATASATTTLAQSDERVNLVELGVYVSD	not soluble
MVKQISVFVENKPGRLAAVTEVLMKHNINIRAFTIADAGDFGIIRMVVDKTDEAYQALKEAGFTVRLTNVLAVEVEDKPGALHRIAKALGDAGVNIDYVYAFTSEKHKALIIFRVDDREKAKEVLEKLGVLFKGEIN	not soluble
MVKRNKVIKQQSCPLIDTINVISRKWLLLVLNTIGNEGKLGFNSILNSIDDISPKALSDVLKTMEEMGLVKKVIVKSSPPRVEYSLTYEGKKLRKAVIPLFKWAAEHTGHYECPILQSNKLNKEEYS	soluble
MVLEVNQAIVNESLQTEQVMEQLSSTVDVIVDNIEKYTNAARYGKGNNYALNNLRTAVQNQFPLVDWLLSTSLSQMIENAWQNGSLPTVTDEDGNVYLKAPLNVFTTPPKDTKGECCWLPFDIAACGGKAPINILCLKDCVDMLNHLLDRKLKVQSNDLIGFFKQAGQTYEEVRDFMNRESMAFYTANTIVNGQLDVTTPILKKFHGLMEILKRPEVFKMQGTNILAAFDSIGYRMDVLGGSFIFAAHPLTVASIKNAIRPNRYGILPDGWTINGESIFYKGAQVLPDKTVPVDVENGTGVIWQLSGESVGVFLGTTLRPAEDYIIRNQFTTTNDVNKGCATECDIYYNLGSVVTNNVARLAVITDVPLAAGINAYSLANLLDRVYVETLAP	not soluble
